Assay results taken from patent US20140155331A1 (COUNCIL OF SCIENTIFIC AND INDUSTRIAL RESEARCH, published 2014).
One block for each binder: values may come before it. Where no end group is shown, it is not given here. [ ]: non-standard residue; d: D form. fluorescein = N-terminal 5(6)-carboxyfluorescein label; Aib = CC(C)(N)C(=O)O; Ahx = NCCCCCC(=O)O

Legend:
S100B [1] = target: T1, S100B; assay: fluorescence anisotropy; 5 nM fluorescein labeled peptide titrated with S100B in 50 mM Tris-HCl pH 7.5, 50 mM NaCl, 10 mM CaCl2, 25 C
T1 chain: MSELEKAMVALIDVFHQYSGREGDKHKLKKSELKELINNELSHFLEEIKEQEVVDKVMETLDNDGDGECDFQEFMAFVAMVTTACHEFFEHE

S100B [2] = target: T1, S100B; assay: fluorescence anisotropy, N-terminal fluorescein labeled peptide

- Kd (S100B [1]): 7.7 nM
B1: pBBD-TRTK (branched dimeric Aib substituted TRTK) (peptide)
peptide: TRTKIDW[Aib]KIL[Aib]KAH[Ahx]
chain: Lys-NH2
modifications: also: branched dimer: two identical arms on one branching Lys (chain 2)
notes: This is a branched peptide with two identical arms on one lysine; also called bivalent helically branched peptide

- Kd (S100B [2]): ~300 nM
B2: pBM-TRTK (Aib substituted TRTK monomer peptide) (peptide)
peptide: fluorescein-TRTKIDW[Aib]KIL[Aib]GGGCG-NH2
notes: The peptide is derived from TRTK-12 (CapZ residues 265-276) with Aib at N8 and S12; also called pBM-TRK
